This data set in a line: soluble on expression in E. coli; label from the status in PepcDB or PDB records.
With “MRKIIKGREPDAWLKYRCTPGAVYQRKPALADSLLLEQGYVCAYCEKRIDVQDLRVEHIKPRSQYPAQQLSYSNMVACCSGQSQGSAHCDCSKKDEEITLNLFTDALFLSISYKHDGTISSANKSWNDDINITLNLNCLSLKENRKLALEGLLEIIKKEDYSQGVLKRLKARYEAKDKGHKFAEYRGIILYYIDKKLSP”, the “soluble on expression in E. coli” value was “not soluble”. As to “MSSGDQNRGGVADKALQLVLEMKRNPDVLPPYNTELVRQCYQKIDELFQKNAAVVEKIRAGLPHDSTLLQPRLAAMCHIRRCMMAYVNERKNRIRSFRWKYGGALPASVRNALCDAEIQFFNEYSSTLARFQSNLGEGGVNLLLHSAPPKSLFVQVRALEDYGEFETSDGTQVQLSKDSLHSLPRQDCEMLIRQGVLELVH”, the “soluble on expression in E. coli” value is given as “not soluble”. On to “MGKSASKQFHNEVLKAHNEYRQKHGVPPLKLCKNLNREAQQYSEALASTRILKHSPESSRGQCGENLAWASYDQTGKEVADRWYSEIKNYNFQQPGFTSGTGHFTAMVWKNTKKMGVGKASASDGSSFVVARYFPAGNVVNEGFFEENVLPPKK”, for which the “soluble on expression in E. coli” value was “soluble”.

As for “MIHTYEEAIGWIHSRLKFGIKPGLERMRWMLEELGNPERHIKCVHLAGTNGKGSTLTYMRYMLEDAKYKVGTFTSPYIETFNERISVNGTPIADEEITELVKMVKPVVEKLDETDLGEATEFEIITVMAICYFGKVNFCDVVLFETGLGGRFDSTNVIHPVLTIITNIGHDHMHILGNTLGEIAYEKAGIIKSGVPVITGVQDEEALQVIQKVAKENRANLYEMGNHFTALHKQSSENGEQFDFTCPFASFEDVRIAMKGSHQVGNAALALMAVMYVKTYLSFLIEEEEIRTGLQEAYWVGRFEKLQSNPDIIIDGAHNPEGIESLVKTVESHYKDKNVIVLFTALGDKQLHNMVGQLETIADEIIFTTFAFDRAISAGELASYAKKESKLVFENWKEAIDTKVEMIGENDVFIITGSLYFISEVRKYIREKN”, the “soluble on expression in E. coli” value was “not soluble”. On to “GNGRFLTLKPLPDSIIQESLEIQQGVNPFFIGRSEDCNCKIEDNRLSRVHCFIFKKRHAVGKSMYESPAQGLDDIWYCHTGTNVSYLNNNRMIQGTKFLLQDGDEIKIIWDKNNKFVIGFKVEINDTTGLFNEGLGMLQEQRVVLKQTAEEKDLVKKL”, for which the “soluble on expression in E. coli” value is “soluble”.

For “MGVPIGDLVPRKEIDLENLYGKKIAIDALNAIYQFLSTIRQEDGTPLMDSKGRITSHLSGLFYRTINLMEAGIKPAYVFDGKPPEFKRKELEKRREAREEAELKWKEALAKGNLEEARKYAQRATKVNEMLIEDAKKLLQLMGIPIIQAPSEGEAQAAYMASKGDVYASASQDYDSLLFGAPRLIRNLTITGKRKMPGKDVYVEIKPELVVLDEVLKELKITREKLIELAILVGTDYNPGGVKGIGPKKALEIVRYSRDPLAKFQRQSDVDLYAIKEFFLNPPVTNEYSLSWKEPDEEGILKFLCDEHNFSEERVKNGIERLKKAIKAGRQSTLESWFVKKKP”, the “soluble on expression in E. coli” value was “soluble”. Regarding “MNTMVKLPDSRWPGWRRRLYWWMHEAVEAEEVISLDLETTSLDPRRADILSIGAVLVRRGKLVMGERLELYVEPPPSLDAESIRIHKLRRADLEGQLQLEQALRQVLAFIGDRPLLGYYLSFDVAVLNRHLRQLLDRQLHNPSIEISSLYHRKVSRHFPDAHIDLRFDTLARALDVPVSGRHTALGDAQAVALMFMRLLKGPAPKVIH”, the “soluble on expression in E. coli” value is “not soluble”. Take “PKTVQDLTSVVQTLLQQMQDKFQTISDQIIGRIDDMSSRIDDLEKNIA”: the “soluble on expression in E. coli” value was “soluble”.

For “MSAIIDPSTGKPFKADKQIMGEDIARAYTTGIRNPRPTSVASTITPQRLAGVLRSVIDGNDPEAYMTLAEEIEERDLHYAAQLRTRKFAVAAITPTVEAASDDAIDVLMAERAREIINDDQIPELFFDLLDGLGKGLAVVQILWDTKSTPWKPQDYKWVDPRYLRQDQQTLEQILLISEDAPMGAELEPYKFIIHTPRSKSGSVWRNGLARLVAVMYMLKSFTVRDWWAFAEVFGVPVRVGKYGANASESDISTLINAIGRIASDAGAVIPESMKLELIETAKGNGGDTLFENMARWCDEQISKAVLGQTMTADNGSSQSQATVHNEVRIDIAKWDARQLEASINEYLIKPYIILNWGEQLRYPKVRIKVPEPEDLQLLVNSLTPLIDRGLKVSASEMADKLGLGTVDADEDILLPFQTVGIQAMPTALNRANSQTIAINQVRNTAEREIDNLANEAMGEWEQVAEEFMNPIIDLANKSASYDEFAAGLPALQQQLGAEQFIAQMAQYMFQLRGLGDAQDG”, the “soluble on expression in E. coli” value is “soluble”. The result for “MDVYHDGACPEVKPVDNFDWSQYHGKWWEVAKYPSPNGKYGKCGWAEYTPEGKSVKVSRYDVIHGKEYFMEGTAYPVGDSKIGKIYHSRTVGGYTKKTVFNVLSTDNKNYIIGYSCRYDEDKKGHWDHVWVLSRSMVLTGEAKTAVENYLIGSPVVDSQKLVYSDFSEAACKVNNSNWSHPQFEK” reads “soluble”; that for “MQRIVIVGGGVGGTMLANLLVVRLYPEILGGEVQVLLISDSPDHYYKPAFMYVAFEQFFLEDLKRPQRSLLRPEVMFQLDRVDRFDFPRQELQTRSGRRHGYDYLVIATGCVPAPERIEGLKEAGDHFYQYQPARRLAERLASLESGRVFITVSFPRTPNVPHQCGIAPVETTLMLDDYLRRRGVRERVEIVYTYPTTAQLLRNCLFLQRPTCEILPSLFEQRGIRFQRGFTLARVDPERRIAYSEEGDEQPFDLLMATPPIHAVDAVRECGLPQAAADEGWLPTNHETLQVYGVDRVYTLGDTVDLPVSKAGGACHNQAPVVASNIAAEIRLGKPCAIYDGRVQAVAQMGLNAGMPLWYDYRHDVKPTPPTKLGGLLRQGFNRGLYWAVARGMLLEHHHHHH”, “soluble”. The result for “GMMNTPESRLVAAGLELPEVAAALGNYEPYSIVGSQLMTSGQFPYLQGKLLYQGQLGADYTVSEGYAACRLATLNAIAQLKQACGELSRIKQIYRLEGVLNVHQSCIEHPKALDGASDLLLEIFGEAGRHSRMIWTNPVMPLNSLCLVYLFAEL” reads “soluble”.

As for “MGKVYVFDHPLIQHKLTYIRDKNTGTKEFRELVDEVATLMAFEITRDLPLEEVEIETPVSKARAKVIAGKKLGVIPILRAGIGMVDGILKLIPAAKVGHIGLYRDPQTLKPVEYYVKLPSDVEERDFIIVDPMLATGGSAVAAIDALKKRGAKSIKFMCLIAAPEGVKAVETAHPDVDIYIAALDERLNDHGYIVPGLGDAGDRLFGTK”, the “soluble on expression in E. coli” value is recorded as “soluble”.

Turning to “MAHHHHHHMAASYLVLQRYTDLINSGDLDAAFNYLSEDIIYVTWLGVIEGKDNVVTFLRDNMRFLHFAKHFNRWRQVQHCLDADLSRHCDDSDVGGSNLFDRDGYDRQGYASFERDGMIANIVKLSMQKTRVRETVVIRDNKVVLVTLMEQL”, the “soluble on expression in E. coli” value is listed as “not soluble”. As to “MADLFPADFEPVFINIGDLELYNQDLDDEGTPTEAWTTFREEVKQVDGVMFVTPEYNRSVPAVLKNALDVGSRPYGESVWDKKPGLVVSVSPGAISGFGANHHLRQSLVFLNVPTLQQPEAYIGGITNLIGEDGKIIDGTVGFLQSIVDAYVDFFNRLTA”, the “soluble on expression in E. coli” value is listed as “not soluble”.

On to “MNIKRNIIFALESRKKDGVLIVENVPIRMRVNFASQRIEFTTGYRIDVAKWDADKQRVKNGCTNKLKQSASEINAALLGYYTELQEVFKRFEVAEVMPSPADVKSAFNARHRSDDVQTEQTSDKPDASAEFYKAFDEFVRVCGRQNDWTHATYEKFAAVKNHLRSFRADLSFSFFNEVGLTEYVRYLREVRKMRNSTIGKQLSFLKWFLRWSFGQGIHSNNAYDTFRPKLKDTQKKIIFLTWEELTKLREFEIPPAKQSLDRVRDVFLFQCFTGLRYSDVYNLRRSDIKEDHIEVTTIKTSDSLVIELNKHSKAILEKYQDVVFEHDKALPVITNQKMNEYLKELAELAGINEPIRQTYYKGNERIDEVTPKYALLGTHAGRRTFICNALALGIPPQVVMKWTGHSDYKAMKPYIDIADDIKANAMSKFNQL”, for which the “soluble on expression in E. coli” value is given as “not soluble”. In the case of “SMSRPDQAARRRAIAAELHVSPTFDARDEAERRIGFVADYLRTAGLRACVLGISGGIDSSTAGRLAQLAVERLRASGYDARFVAMRLPYGAQHDEADARRALAFVRADETLTVDVKPAADAMLAALAAGGLAYLDHAQQDFVLGNIKARERMIAQYAVAGARNGVVIGTDHAAESVMGFFTKFGDGGADVLPLAGLTKRRVRALARMLGADEPLVLKTPTADLETLRPQRPDEHAYGITYEQIDDFLEGKPMDDAVAETVLRFYDATRHKRALPYTMFDWPGHPA”, the “soluble on expression in E. coli” value is recorded as “soluble”. With “MGSDKIHHHHHHMKRLSLLERSRLPTNDLGNARRLFEAANGRLLWLADGAGGKGCWIAFDGIRWSADEGPMRALAFAQKAAVEICDEAHALRECTADELAEVYGRKFSKEMAEERAGQLWTWSIKSGDSAKTTAMQNQFKGLRDGDEGPFVTQVWQRDFDAQPMAYHCSNGTLRFVQDDAGTWSHVFEKGHRPDDRFMQVANVAYDAAAKAKAWIERMEVMHHDPVQRTALQRIYGMTLTALISDQAFYIFQGKGQDGKSVTNDVVCQLHGMYARKADPKTFLEGPTQQSSGPQSDIVRLAGDVRLVVMDEPKKNSTWDGQKIKQATGSEMIARGVHATTELSFTPHWQLIAECNGLPKAPSDDRGFRRRFKLYPWVVQFGVTPGVADEPVHLVKARLIGEGSGVLNWMIKGCVEWLNERVVPEPEAAKRATASFWSASSAMGEWIASHCDLSDPEAREEATPLYKAFRQFCIDRGDDETKIITQTTFGRQLNDAQIYRVPNNSTGKVERVGIRLKRVDELGGGALSTSGRDTFDDDVARFDADNRDPFGAP”, the “soluble on expression in E. coli” value is on record as “not soluble”. As for “MPPEMEGFLYLKSDGRKSWKKHYFVLRPSGLPPEMEGFLYLKSDGRKSWKKHYFVLRPSGLMYHDRRRTGFRQYETYMKQKQSADWQLDELLEELEALETQLNSSNGGDQLLLGVSGIPASSSRENVKSISTLPPPPPALSYHQTPQQPQLLHHHNNHLGYQNGIHQITSINSAASSCSSPDGDSAFGDSSSTESSNNRCRNSAFSSNDSCRDSLNTPSPTQVSPRNGELNAEEAKAQKIRQALEKMKEAKVTKIFVKFFVEDGEALQLLIDERWTVADTLKQLAEKNHIALMEDHCIVEEYPELYIKRVYEDHEKVVENIQMWVQDSPNKLYFMRRPDKYAFISRPELYLLTPKTSDHMEIPSGDQWTIDVKQKFVSEYFHREPVVYYAPKSKKPTTKDLTCLMNLHSNQVYTGIGWEKKYKSPTPWCISIKLTALQMKRSQFIKYICAEDEMTFKKWLVALRIAKNGAELLENYERACQIRRETLGPASSMSAASSSTAISEVPHSLSHHQRTPSVASSIQLSSHMMNNPTHPLSVNVRNQSPASFSVNSCQQSHPSRTSAKLEIQYDEQPTGTIKRAPLDVLRRVSRASTSSPTIPQEESDSDEEFPAPPPVASVMRMPPPVTPPKPCTPLTSKKAPPPPPKRSDTTKLQSASPMAPAKNDLEAALARRREKMATMEC”, the “soluble on expression in E. coli” value was “not soluble”.

In the case of “MLDFAQLPPEVNSALMYAGPGSGPMLAAAAAWEALAAELQTTASTYDALITGLADGPWQGSSAASMVAAATPQVAWLRSTAGQAEQAGSQAVAAASAYEAAFFATVPPPEIAANRALLMALLATNFLGQNTAAIAATEAQYAEMWAQDAAAMYGYAGASAAATQLSPFNPAAQTINPAGLASQAASVGQAVSGAANAQALTDIPKALFGLSGIFTNEPPWLTDLGKALGLTGHTWSSDGSGLIVGGVLGDFVQGVTGSAELDASVAMDTFGKWVSPARLMVTQFKDYFGLAHDLPKWASEGAKAAGEAAKALPAAVPAIPSAGLSGVAGAVGQAASVGGLKVPAVWTATTPAASPAVLAASNGLGAAAAAEGSTHAFGGMPLMGSGAGRAFNNFAAPRYGFKPTVIAQPPAGG”, the “soluble on expression in E. coli” value is “not soluble”.

The record behind these values is the DeepSol protein solubility set.
